Reference: patent US20230416394A1

Experiments:
[1] = target: 6×His tagged human CD39 (human); assay: Biacore, antibody captured, 6×His human CD39 as analyte, 1:1 model
[2] = target: human CD39 protein (Octet assays) (human); assay: Octet, antibody on sensor, CD39 gradient
Chain of human CD39 protein (Octet assays) (human) (P49961 38-478): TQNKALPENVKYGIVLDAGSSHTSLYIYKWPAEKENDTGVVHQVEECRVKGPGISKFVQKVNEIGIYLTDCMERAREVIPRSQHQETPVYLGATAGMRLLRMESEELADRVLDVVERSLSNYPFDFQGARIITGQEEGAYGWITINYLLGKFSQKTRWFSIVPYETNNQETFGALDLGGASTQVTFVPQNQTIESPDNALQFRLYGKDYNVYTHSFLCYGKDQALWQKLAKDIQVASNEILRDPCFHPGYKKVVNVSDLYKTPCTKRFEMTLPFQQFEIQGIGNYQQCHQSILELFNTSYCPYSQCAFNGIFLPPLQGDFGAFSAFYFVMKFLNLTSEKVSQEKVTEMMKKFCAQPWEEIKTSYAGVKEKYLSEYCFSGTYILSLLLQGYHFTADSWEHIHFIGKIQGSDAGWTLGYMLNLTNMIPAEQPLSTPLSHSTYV

Chain of 6×His tagged human CD39 (human) (P49961 38-478): as above

Kd [1]: 19.5 nM | koff [1]: 0.0016 s⁻¹ | kon [1]: 82200 M⁻¹ s⁻¹ | Kd [2]: 0.687 nM | koff [2]: 9.36e-05 s⁻¹ | kon [2]: 136000 M⁻¹ s⁻¹
B1: hu23.H5L5 (antibody, from a related filing, V domains shown)
VH: QVQLVQSGAEVKKPGASVKVSCKASGYNLKDTFLHWVRQAPGQGLEWMGRIDPANGNIKYDPKFQGRVTITADTSANTAYMELISLRSEDTAVYYCANSPYYYGSGYRIFDVWGQGTTVTVSS
VL: QIVLTQSPATLSLSPGERATLSCSAFSSVNYMHWYQQKPGQAPRLLIYTTSNLASGIPTRFSGSGSGTSYTLTISSLEPEDFAVYYCQQRSTYPFTFGQGTKLEIK
